In series [1] the target is T1, SARS-CoV-2 Spike RBD (SARS-CoV-2, UniProt P0DTC2 319-541). The conditions noted are these: protein: commercial; tags: C-terminal 6xHis; label: 5'-FAM.
The target in series [2] is T1, SARS-CoV-2 Spike RBD.

Like-named read-outs stand apart in the source and are kept apart here.

B1: FAM-Aptamer (ssDNA)
DNA: CAGCACCGACCTTGTGCTTTGGGAGTGCTGGTCCAAGGGCGTTAATGGACA
On to B1, for which the binding result in the series with SARS-CoV-2 Spike RBD [1] is “binds”.

B2: Aptamer (ssDNA)
DNA: CAGCACCGACCTTGTGCTTTGGGAGTGCTGGTCCAAGGGCGTTAATGGACA
Regarding B2, the binding result in the series with SARS-CoV-2 Spike RBD [2] is listed as “binds”.

(Values after PMC10052277, “Detection of SARS-CoV-2 receptor binding domain using fluorescence probe and DNA flowers enabled by rolling circle amplification”.)
